Nine molecules from publication PMC5416816 can be followed below.

Like-named read-outs stand apart in the source and are kept apart here.

In series [1] the target is T1, TIA-1 RRM23K (UniProt P31483-2 93-274).
T1 sequence: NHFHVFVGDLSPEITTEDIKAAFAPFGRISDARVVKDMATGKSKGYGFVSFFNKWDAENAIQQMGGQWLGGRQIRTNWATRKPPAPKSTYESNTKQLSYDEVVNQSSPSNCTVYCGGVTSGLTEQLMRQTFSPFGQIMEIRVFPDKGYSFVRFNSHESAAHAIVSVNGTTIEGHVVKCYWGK
The experiment in a line: fluorescence anisotropy.

For series [2], the target named is T1, TIA-1 RRM23K. The experiment in a line: ITC.
In series [3] the target is T2, TIA-1 RRM23L (UniProt P31483-2 80-292).
T2 sequence: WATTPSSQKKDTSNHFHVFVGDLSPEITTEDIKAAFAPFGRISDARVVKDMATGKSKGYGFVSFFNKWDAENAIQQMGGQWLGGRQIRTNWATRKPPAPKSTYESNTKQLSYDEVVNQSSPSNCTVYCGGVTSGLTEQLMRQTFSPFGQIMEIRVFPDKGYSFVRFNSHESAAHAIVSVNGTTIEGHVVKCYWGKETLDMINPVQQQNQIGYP
As to the kind of experiment: NMR.

Series [4] has as its target T3, TIA-1 RRM2L (UniProt P31483-2 80-188).
T3 sequence: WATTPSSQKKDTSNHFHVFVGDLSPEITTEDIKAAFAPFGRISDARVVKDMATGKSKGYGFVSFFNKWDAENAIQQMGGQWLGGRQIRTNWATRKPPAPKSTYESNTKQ
The experiment in a line: fluorescence anisotropy.

The target of series [5] is T2, TIA-1 RRM23L. As to the kind of experiment: fluorescence anisotropy.
Series [6] addresses T4, TIA-1 RRM23S (UniProt P31483-2 94-272).
T4 sequence: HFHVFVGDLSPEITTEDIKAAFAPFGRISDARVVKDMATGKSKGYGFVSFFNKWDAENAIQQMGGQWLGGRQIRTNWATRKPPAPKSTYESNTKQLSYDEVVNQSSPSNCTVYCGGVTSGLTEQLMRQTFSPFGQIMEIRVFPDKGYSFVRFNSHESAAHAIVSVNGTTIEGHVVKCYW
As to the kind of experiment: fluorescence anisotropy.

Series [7] deals with T5, TIA-1 RRM2S (UniProt P31483-2 95-184).
T5 sequence: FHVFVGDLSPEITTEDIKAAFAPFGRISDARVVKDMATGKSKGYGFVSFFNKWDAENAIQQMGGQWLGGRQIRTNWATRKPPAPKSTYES
As to the kind of experiment: NMR.

The target in series [8] is T2, TIA-1 RRM23L. The experiment in a line: NMR. This is another data set of the same source.

Turning to ACTCCTTTTT (ssDNA) [CT-rich DNA], the equilibrium dissociation constant (Kd) in series [1] is 30 ± 3 nM.

Consider ACUCCUUUUU (ssRNA) [CU-rich RNA (unlabeled)], for which, in series [2], the dissociation constant Kd is 70 ± 3 nM.

As for UUUUUACUCC (ssRNA) [UC-rich RNA (unlabeled)], the Kd in series [2] stood at 12 ± 2 nM.

As to TTTTTACTCC (ssDNA, 5' thiol C6 S-S) [5'thiol TC-rich DNA], the binding result in series [3] is on record as “binds”.

As to ACUCCUUUUU (ssRNA) [CU-rich RNA], the equilibrium dissociation constant (Kd) in series [4] worked out at 9100 ± 2000 nM; in series [1], 130 ± 10 nM; in series [5], 130 ± 7 nM; in series [6] it was 6600 ± 700 nM.

In the case of TTTTT (ssDNA) [TTTTT DNA], the binding result in series [7] is “binds”.

As to TTTTTACTCC (ssDNA, 5' thiol C6 coupled to PROXYL) [PROXYL TC-rich DNA], in series [8], the binding result is “binds”.

As for TTTTTACTCC (ssDNA) [TC-rich DNA], in series [1], the equilibrium dissociation constant (Kd) worked out at 8 ± 1 nM.

With UUUUUACUCC (ssRNA) [UC-rich RNA], the affinity in series [1], expressed as Kd, was 5 ± 0.3 nM.
